# Measured values: patent US9957297B2, “Template-fixed peptidomimetics as inhibitors of FPR1” (POLYPHOR AG, priority 2011, dated 2018)
# Bridges are numbered along the chain shown (N, C = ends). Primed or numbered codes have the meaning given here. [ ]: non-standard residue; d: D form. Phe(4-CF3) = N[C@@H](Cc1ccc(C(F)(F)F)cc1)C(=O)O; dTic = O=C(O)[C@H]1Cc2ccccc2CN1; hSer = N[C@@H](CCO)C(=O)O; Orn = NCCC[C@H](N)C(=O)O; dPip′ = not defined here; Dab = NCC[C@H](N)C(=O)O
# T1: Formyl-Peptide Receptor 1 (UniProt P21462 1-350, limits assumed)
# T1 sequence (looked up): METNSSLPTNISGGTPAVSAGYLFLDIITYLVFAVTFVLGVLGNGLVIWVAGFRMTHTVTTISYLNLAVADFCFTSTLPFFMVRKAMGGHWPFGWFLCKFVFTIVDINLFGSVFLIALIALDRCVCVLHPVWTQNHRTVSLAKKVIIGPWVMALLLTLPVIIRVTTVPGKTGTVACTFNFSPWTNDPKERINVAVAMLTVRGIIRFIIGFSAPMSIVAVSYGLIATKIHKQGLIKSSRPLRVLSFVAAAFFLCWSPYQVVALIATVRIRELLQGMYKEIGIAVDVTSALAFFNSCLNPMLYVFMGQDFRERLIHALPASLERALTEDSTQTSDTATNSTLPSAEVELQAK
# B1: cyclo(-Tyr-His-Lys-Cys-His-Gly-^DTic-Trp-Thr-Ile-Cys-Tyr-Glu-Lys-^DPro-Pro-) (peptide)
# peptide: cyclo(YHKCHG[dTic]WTICYEK[dP]P)
# modifications: disulfide 4-11
# SMILES: CC[C@H](C)[C@@H]1NC(=O)[C@H]([C@@H](C)O)NC(=O)[C@H](Cc2c[nH]c3ccccc23)NC(=O)[C@H]2Cc3ccccc3CN2C(=O)CNC(=O)[C@H](Cc2c[nH]cn2)NC(=O)[C@@H]2CSSC[C@H](NC1=O)C(=O)N[C@@H](Cc1ccc(O)cc1)C(=O)N[C@@H](CCC(=O)O)C(=O)N[C@@H](CCCCN)C(=O)N1CCC[C@@H]1C(=O)N1CCC[C@H]1C(=O)N[C@@H](Cc1ccc(O)cc1)C(=O)N[C@@H](Cc1c[nH]cn1)C(=O)N[C@@H](CCCCN)C(=O)N2
# B2: cyclo(-Tyr-His-Lys-Cys-His-Gly-^DPro-Trp-Thr-Ile-Cys-Tyr-Glu-Hse-^DPro-Pro-) (peptide)
# peptide: cyclo(YHKCHG[dP]WTICYE[hSer][dP]P)
# modifications: disulfide 4-11
# SMILES: CC[C@H](C)[C@@H]1NC(=O)[C@H]([C@@H](C)O)NC(=O)[C@H](Cc2c[nH]c3ccccc23)NC(=O)[C@H]2CCCN2C(=O)CNC(=O)[C@H](Cc2c[nH]cn2)NC(=O)[C@@H]2CSSC[C@H](NC1=O)C(=O)N[C@@H](Cc1ccc(O)cc1)C(=O)N[C@@H](CCC(=O)O)C(=O)N[C@@H](CCO)C(=O)N1CCC[C@@H]1C(=O)N1CCC[C@H]1C(=O)N[C@@H](Cc1ccc(O)cc1)C(=O)N[C@@H](Cc1c[nH]cn1)C(=O)N[C@@H](CCCCN)C(=O)N2
# B3: cyclo(-Tyr-His-Lys-Cys-His-Gly-^DPro-Trp-Thr-Ile-Cys-Tyr-Glu-Lys-^DAla-Glu-) (peptide)
# peptide: cyclo(YHKCHG[dP]WTICYEK[dA]E)
# modifications: disulfide 4-11
# SMILES: CC[C@H](C)[C@@H]1NC(=O)[C@H]([C@@H](C)O)NC(=O)[C@H](Cc2c[nH]c3ccccc23)NC(=O)[C@H]2CCCN2C(=O)CNC(=O)[C@H](Cc2c[nH]cn2)NC(=O)[C@@H]2CSSC[C@H](NC1=O)C(=O)N[C@@H](Cc1ccc(O)cc1)C(=O)N[C@@H](CCC(=O)O)C(=O)N[C@@H](CCCCN)C(=O)N[C@H](C)C(=O)N[C@@H](CCC(=O)O)C(=O)N[C@@H](Cc1ccc(O)cc1)C(=O)N[C@@H](Cc1c[nH]cn1)C(=O)N[C@@H](CCCCN)C(=O)N2
# B4: cyclo(-Tyr-His-Lys-Cys-His-Gly-^DPro-Trp-Thr-Ile-Cys-Tyr-Glu-His-^DPro-Pro-) (peptide)
# peptide: cyclo(YHKCHG[dP]WTICYEH[dP]P)
# modifications: disulfide 4-11
# SMILES: CC[C@H](C)[C@@H]1NC(=O)[C@H]([C@@H](C)O)NC(=O)[C@H](Cc2c[nH]c3ccccc23)NC(=O)[C@H]2CCCN2C(=O)CNC(=O)[C@H](Cc2c[nH]cn2)NC(=O)[C@@H]2CSSC[C@H](NC1=O)C(=O)N[C@@H](Cc1ccc(O)cc1)C(=O)N[C@@H](CCC(=O)O)C(=O)N[C@@H](Cc1c[nH]cn1)C(=O)N1CCC[C@@H]1C(=O)N1CCC[C@H]1C(=O)N[C@@H](Cc1ccc(O)cc1)C(=O)N[C@@H](Cc1c[nH]cn1)C(=O)N[C@@H](CCCCN)C(=O)N2
# B5: cyclo(-Tyr-His-Lys-Cys-His-Gly-^DPro-Trp-Thr-Ile-Cys-Tyr-Glu-Dab-^DPro-Pro-) (peptide)
# peptide: cyclo(YHKCHG[dP]WTICYE[Dab][dP]P)
# modifications: disulfide 4-11
# SMILES: CC[C@H](C)[C@@H]1NC(=O)[C@H]([C@@H](C)O)NC(=O)[C@H](Cc2c[nH]c3ccccc23)NC(=O)[C@H]2CCCN2C(=O)CNC(=O)[C@H](Cc2c[nH]cn2)NC(=O)[C@@H]2CSSC[C@H](NC1=O)C(=O)N[C@@H](Cc1ccc(O)cc1)C(=O)N[C@@H](CCC(=O)O)C(=O)N[C@@H](CCN)C(=O)N1CCC[C@@H]1C(=O)N1CCC[C@H]1C(=O)N[C@@H](Cc1ccc(O)cc1)C(=O)N[C@@H](Cc1c[nH]cn1)C(=O)N[C@@H](CCCCN)C(=O)N2
# B6: cyclo(-Tyr-His-Lys-Cys-Tyr-Gly-^DPro-Trp-Thr-Ile-Cys-Tyr-Glu-Lys-^DPro-Pro-) (peptide)
# peptide: cyclo(YHKCYG[dP]WTICYEK[dP]P)
# modifications: disulfide 4-11
# SMILES: CC[C@H](C)[C@@H]1NC(=O)[C@H]([C@@H](C)O)NC(=O)[C@H](Cc2c[nH]c3ccccc23)NC(=O)[C@H]2CCCN2C(=O)CNC(=O)[C@H](Cc2ccc(O)cc2)NC(=O)[C@@H]2CSSC[C@H](NC1=O)C(=O)N[C@@H](Cc1ccc(O)cc1)C(=O)N[C@@H](CCC(=O)O)C(=O)N[C@@H](CCCCN)C(=O)N1CCC[C@@H]1C(=O)N1CCC[C@H]1C(=O)N[C@@H](Cc1ccc(O)cc1)C(=O)N[C@@H](Cc1c[nH]cn1)C(=O)N[C@@H](CCCCN)C(=O)N2
# B7: cyclo(-Tyr-His-Lys-Cys-His-Gly-^DPro-Trp-Thr-Ile-Cys-Tyr-Glu-Gly-^DPro-Pro-) (peptide)
# peptide: cyclo(YHKCHG[dP]WTICYEG[dP]P)
# modifications: disulfide 4-11
# SMILES: CC[C@H](C)[C@@H]1NC(=O)[C@H]([C@@H](C)O)NC(=O)[C@H](Cc2c[nH]c3ccccc23)NC(=O)[C@H]2CCCN2C(=O)CNC(=O)[C@H](Cc2c[nH]cn2)NC(=O)[C@@H]2CSSC[C@H](NC1=O)C(=O)N[C@@H](Cc1ccc(O)cc1)C(=O)N[C@@H](CCC(=O)O)C(=O)NCC(=O)N1CCC[C@@H]1C(=O)N1CCC[C@H]1C(=O)N[C@@H](Cc1ccc(O)cc1)C(=O)N[C@@H](Cc1c[nH]cn1)C(=O)N[C@@H](CCCCN)C(=O)N2
# B8: cyclo(-Tyr-His-Lys-Cys-Phe(4CF3)-Gly-^DPro-Trp-Thr-Ile-Cys-Tyr-Glu-Lys-^DPro-Pro-) (peptide)
# peptide: cyclo(YHKC[Phe(4-CF3)]G[dP]WTICYEK[dP]P)
# modifications: disulfide 4-11
# SMILES: CC[C@H](C)[C@@H]1NC(=O)[C@H]([C@@H](C)O)NC(=O)[C@H](Cc2c[nH]c3ccccc23)NC(=O)[C@H]2CCCN2C(=O)CNC(=O)[C@H](Cc2ccc(C(F)(F)F)cc2)NC(=O)[C@@H]2CSSC[C@H](NC1=O)C(=O)N[C@@H](Cc1ccc(O)cc1)C(=O)N[C@@H](CCC(=O)O)C(=O)N[C@@H](CCCCN)C(=O)N1CCC[C@@H]1C(=O)N1CCC[C@H]1C(=O)N[C@@H](Cc1ccc(O)cc1)C(=O)N[C@@H](Cc1c[nH]cn1)C(=O)N[C@@H](CCCCN)C(=O)N2
# B9: cyclo(-Tyr-His-Lys-Cys-His-Gly-^DPro-Trp-Thr-Ile-Cys-Tyr-Glu-Trp-^DPro-Pro-) (peptide)
# peptide: cyclo(YHKCHG[dP]WTICYEW[dP]P)
# modifications: disulfide 4-11
# SMILES: CC[C@H](C)[C@@H]1NC(=O)[C@H]([C@@H](C)O)NC(=O)[C@H](Cc2c[nH]c3ccccc23)NC(=O)[C@H]2CCCN2C(=O)CNC(=O)[C@H](Cc2c[nH]cn2)NC(=O)[C@@H]2CSSC[C@H](NC1=O)C(=O)N[C@@H](Cc1ccc(O)cc1)C(=O)N[C@@H](CCC(=O)O)C(=O)N[C@@H](Cc1c[nH]c3ccccc13)C(=O)N1CCC[C@@H]1C(=O)N1CCC[C@H]1C(=O)N[C@@H](Cc1ccc(O)cc1)C(=O)N[C@@H](Cc1c[nH]cn1)C(=O)N[C@@H](CCCCN)C(=O)N2
# B10: cyclo(-Tyr-His-Lys-Cys-His-Gly-^DPro-Trp-Thr-Ile-Cys-Tyr-Glu-Thr-^DPro-Pro-) (peptide)
# peptide: cyclo(YHKCHG[dP]WTICYET[dP]P)
# modifications: disulfide 4-11
# SMILES: CC[C@H](C)[C@@H]1NC(=O)[C@H]([C@@H](C)O)NC(=O)[C@H](Cc2c[nH]c3ccccc23)NC(=O)[C@H]2CCCN2C(=O)CNC(=O)[C@H](Cc2c[nH]cn2)NC(=O)[C@@H]2CSSC[C@H](NC1=O)C(=O)N[C@@H](Cc1ccc(O)cc1)C(=O)N[C@@H](CCC(=O)O)C(=O)N[C@@H]([C@@H](C)O)C(=O)N1CCC[C@@H]1C(=O)N1CCC[C@H]1C(=O)N[C@@H](Cc1ccc(O)cc1)C(=O)N[C@@H](Cc1c[nH]cn1)C(=O)N[C@@H](CCCCN)C(=O)N2
# B11: cyclo(-Tyr-His-Lys-Cys-His-Gly-^DPro-Trp-Thr-Ile-Cys-Tyr-Glu-Glu-^DPro-Pro-) (peptide)
# peptide: cyclo(YHKCHG[dP]WTICYEE[dP]P)
# modifications: disulfide 4-11
# SMILES: CC[C@H](C)[C@@H]1NC(=O)[C@H]([C@@H](C)O)NC(=O)[C@H](Cc2c[nH]c3ccccc23)NC(=O)[C@H]2CCCN2C(=O)CNC(=O)[C@H](Cc2c[nH]cn2)NC(=O)[C@@H]2CSSC[C@H](NC1=O)C(=O)N[C@@H](Cc1ccc(O)cc1)C(=O)N[C@@H](CCC(=O)O)C(=O)N[C@@H](CCC(=O)O)C(=O)N1CCC[C@@H]1C(=O)N1CCC[C@H]1C(=O)N[C@@H](Cc1ccc(O)cc1)C(=O)N[C@@H](Cc1c[nH]cn1)C(=O)N[C@@H](CCCCN)C(=O)N2
# B12: cyclo(-Tyr-His-Lys-Cys-His-Gly-^DPro-Trp-Thr-Ile-Cys-Tyr-Glu-Lys-^DLys-Glu-) (peptide)
# peptide: cyclo(YHKCHG[dP]WTICYEK[dK]E)
# modifications: disulfide 4-11
# SMILES: CC[C@H](C)[C@@H]1NC(=O)[C@H]([C@@H](C)O)NC(=O)[C@H](Cc2c[nH]c3ccccc23)NC(=O)[C@H]2CCCN2C(=O)CNC(=O)[C@H](Cc2c[nH]cn2)NC(=O)[C@@H]2CSSC[C@H](NC1=O)C(=O)N[C@@H](Cc1ccc(O)cc1)C(=O)N[C@@H](CCC(=O)O)C(=O)N[C@@H](CCCCN)C(=O)N[C@H](CCCCN)C(=O)N[C@@H](CCC(=O)O)C(=O)N[C@@H](Cc1ccc(O)cc1)C(=O)N[C@@H](Cc1c[nH]cn1)C(=O)N[C@@H](CCCCN)C(=O)N2
# B13: cyclo(-Tyr-His-Lys-Cys-Trp-Gly-^DPro-Trp-Thr-Ile-Cys-Tyr-Glu-Lys-^DPro-Pro-) (peptide)
# peptide: cyclo(YHKCWG[dP]WTICYEK[dP]P)
# modifications: disulfide 4-11
# SMILES: CC[C@H](C)[C@@H]1NC(=O)[C@H]([C@@H](C)O)NC(=O)[C@H](Cc2c[nH]c3ccccc23)NC(=O)[C@H]2CCCN2C(=O)CNC(=O)[C@H](Cc2c[nH]c3ccccc23)NC(=O)[C@@H]2CSSC[C@H](NC1=O)C(=O)N[C@@H](Cc1ccc(O)cc1)C(=O)N[C@@H](CCC(=O)O)C(=O)N[C@@H](CCCCN)C(=O)N1CCC[C@@H]1C(=O)N1CCC[C@H]1C(=O)N[C@@H](Cc1ccc(O)cc1)C(=O)N[C@@H](Cc1c[nH]cn1)C(=O)N[C@@H](CCCCN)C(=O)N2
# Biological target: T1, Formyl-Peptide Receptor 1
# Test: cell-based or functional assay
row,β-Arrestin IC50,Binder
1,29 nM,cyclo(YHKCHG[dP]WTICYEK[dPip′]P) (disulfide 4-11) [cyclo(-Tyr-His-Lys-Cys-His-Gly-^DPro-Trp-Thr-Ile-Cys-Tyr-Glu-Lys-^DPip-Pro-)]
2,21 nM,B1
3,24 nM,B2
4,124 nM,B3
5,73 nM,B4
6,82 nM,B5
7,22 nM,B6
8,44 nM,cyclo(YHKCHG[dP]WTICYEK[dP]P) (disulfide 4-11) [cyclo(-Tyr-His-Lys-Cys-His-Gly-^DPro-Trp-Thr-Ile-Cys-Tyr-Glu-Lys-^DPro-Pro-)]
9,53 nM,cyclo(YHKCWG[dP]WTICYE[Dab][dP]P) (disulfide 4-11) [cyclo(-Tyr-His-Lys-Cys-Trp-Gly-^DPro-Trp-Thr-Ile-Cys-Tyr-Glu-Dab-^DPro-Pro-)]
10,250 nM,B7
11,172 nM,B8
12,16 nM,B9
13,197 nM,B10
14,313 nM,cyclo(YH[Orn]CHG[dP]WTICYEK[dP]P) (disulfide 4-11) [cyclo(-Tyr-His-Orn-Cys-His-Gly-^DPro-Trp-Thr-Ile-Cys-Tyr-Glu-Lys-^DPro-Pro-)]
15,57 nM,B11
16,124 nM,B12
17,54 nM,B13
